Experiment [1] concerns the target keyhole limpet hemocyanin. Put plainly: polyreactivity ELISA.
The target of experiment [2] is keyhole limpet hemocyanin. In words: polyreactivity ELISA. This is another data set of the same source.

Where two headings read alike, the source gives them in different places.

As for Bococizumab (antibody), the Binding to KLH (A450 normalised to buffer control) is 24.4 in experiment [1] and 47.1 in experiment [2].

The record behind these values is patent US12247072.
